In patent US20200306385A1 (ADC THERAPEUTICS S A, published 2020):

Target: CD22 (human, UniProt P20273 20-847)
Experiment: cell-based or functional assay

B1: Epratuzumab-A (antibody, V domains shown)
VH: QVQLVQSGAEVKKPGSSVKVSCKASGYTFTSYWLHWVRQAPGQGLEWIGYINPRNDYTEYNQNFKDKATITADESTNTAYMELSSLRSEDTAFYFCARRDITTFYWGQG
VL: DIQLTQSPSSLSASVGDRVTMSCKSSQSVLYSANHKNYLAWYQQKPGKAPKLLIYWASTRESGVPSRFSGSGSGTDFTFTISSLQPEDIATYYCHQYLSSWTFGQG
modifications: PBD dimer drug-linker A (SG3246) conjugated to thiols of TCEP-reduced cysteine disulfide bridges; DAR 2.03; which cysteines are modified is not stated
  EC50 (µg/mL), in vitro cytotoxicity (cell survival, Alamar Blue, 4 days) on CD22+ve Daudi cells: 0.0136 µg/mL
  EC50 (µg/mL), in vitro cytotoxicity (cell survival, Alamar Blue, 4 days) on CD22+ve Ramos cells: 0.0332 µg/mL
  EC50 (µg/mL), in vitro cytotoxicity (cell survival, Alamar Blue, 4 days) on CD22+ve WSU-DLCL2 cells: 0.0243 µg/mL
